Test results published in paper PMC5849602.
The star is where a group is joined. AFC = O=c1cc(C(F)(F)F)c2ccc(N*)cc2o1

How the values were obtained:
[1] = target: T1, recombinant Casp6-R65W (from full-length Casp6-His) (human) (UniProt P55212)
T1 sequence: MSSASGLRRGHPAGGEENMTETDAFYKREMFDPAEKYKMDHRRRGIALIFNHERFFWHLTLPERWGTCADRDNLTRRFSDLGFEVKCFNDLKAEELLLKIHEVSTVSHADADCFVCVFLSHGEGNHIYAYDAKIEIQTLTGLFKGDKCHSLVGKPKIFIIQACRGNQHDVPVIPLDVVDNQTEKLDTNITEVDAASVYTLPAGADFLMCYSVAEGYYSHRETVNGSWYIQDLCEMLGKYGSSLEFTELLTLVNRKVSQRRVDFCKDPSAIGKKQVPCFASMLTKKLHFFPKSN

[2] = target: T2, recombinant Casp6-WT (from full-length human Casp6-WT-6xHis-tag-C-terminus) (human) (UniProt P55212)
T2 sequence: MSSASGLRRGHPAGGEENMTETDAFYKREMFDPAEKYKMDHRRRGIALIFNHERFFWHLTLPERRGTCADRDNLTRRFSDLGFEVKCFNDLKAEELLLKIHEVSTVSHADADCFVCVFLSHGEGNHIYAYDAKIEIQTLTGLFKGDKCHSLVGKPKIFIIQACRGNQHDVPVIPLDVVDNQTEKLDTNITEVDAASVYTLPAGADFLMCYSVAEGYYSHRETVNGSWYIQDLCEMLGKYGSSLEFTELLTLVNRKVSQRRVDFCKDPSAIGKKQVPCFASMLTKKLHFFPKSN

[3] = target: T3, Casp6-WT lacking its pro-domain (∆Casp6-WT) (human) (UniProt P55212)
T3 sequence: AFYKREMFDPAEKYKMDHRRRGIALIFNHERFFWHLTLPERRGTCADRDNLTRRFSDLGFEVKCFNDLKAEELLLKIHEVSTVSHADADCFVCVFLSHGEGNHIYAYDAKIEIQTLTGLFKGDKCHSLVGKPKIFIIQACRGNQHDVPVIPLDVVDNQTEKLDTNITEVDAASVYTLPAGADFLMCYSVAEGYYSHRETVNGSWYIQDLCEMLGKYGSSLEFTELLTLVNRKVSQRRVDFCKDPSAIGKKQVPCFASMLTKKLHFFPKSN

[4] = target: co-expressed Casp6-R65W large and small subunits (human); experiment: thermal shift assay (SYPRO Orange); 10 μM Casp6 with or without 50 μM Ac-VEID-CHO, 20 mM Tris pH 8.5, 5 mM DTT, 5x SYPRO Orange, 25 to 95 °C; ΔTm = Tm with minus Tm without Ac-VEID-CHO
[5] = substrate: ΔN D179 CT version of Casp6-WT (human) (UniProt P55212); experiment: as above

B1: Ac-Val-Glu-Ile-Asp-7-Amino-4-trifluoromethylcoumarin (peptide)
peptide: Ac-VEID-{AFC}
SMILES: CC[C@H](C)[C@H](NC(=O)[C@H](CCC(=O)O)NC(=O)[C@@H](NC(C)=O)C(C)C)C(=O)N[C@@H](CC(=O)O)C(=O)Nc1ccc2c(C(F)(F)F)cc(=O)oc2c1
[1]
  KM of Ac-VEID-AFC cleavage (Michaelis-Menten fit; 20 nM Casp6, 1-300 µM Ac-VEID-AFC): 102 µM
[2]
  KM of Ac-VEID-AFC cleavage (Michaelis-Menten fit; 20 nM Casp6, 1-300 µM Ac-VEID-AFC): 39.1 µM

B2: recombinant proCasp6-G66R (from full-length Casp6-His) (enzyme)
chain: MSSASGLRRGHPAGGEENMTETDAFYKREMFDPAEKYKMDHRRRGIALIFNHERFFWHLTLPERRRTCADRDNLTRRFSDLGFEVKCFNDLKAEELLLKIHEVSTVSHADADCFVCVFLSHGEGNHIYAYDAKIEIQTLTGLFKGDKCHSLVGKPKIFIIQACRGNQHDVPVIPLDVVDNQTEKLDTNITEVDAASVYTLPAGADFLMCYSVAEGYYSHRETVNGSWYIQDLCEMLGKYGSSLEFTELLTLVNRKVSQRRVDFCKDPSAIGKKQVPCFASMLTKKLHFFPKSN
[3]
  reduction of the VEIDase activity (40 µM Ac-VEID-AFC) of Casp3-processed ∆Casp6-WT (0.02 mg/ml) on addition of proCasp6-G66R (0.02-0.06 mg/ml, ratios 1:1 to 3:1), not dose-dependent: 30%

## Ac-VEID-aldehyde [Ac-VEID-CHO]
[4]
  increase of melting temperature with Ac-VEID-CHO (ΔTm): 4.6 °C
[5]
  increase of melting temperature with Ac-VEID-CHO (ΔTm): 7 °C
